Literature values in publication PMC3433420.

Tests used:
Details in all cases: cited from earlier work
CRK (Homo sapiens) = CRK (Homo sapiens) (UniProt P46108)
LYN (Homo sapiens) = LYN (Homo sapiens) (UniProt P07948)
NCK1 (Homo sapiens) = NCK1 (Homo sapiens) (UniProt P16333)
SUPT6H (Homo sapiens) = SUPT6H (Homo sapiens) (UniProt Q7KZ85)
VAV3 (Homo sapiens) = VAV3 (Homo sapiens) (UniProt Q9UKW4)
PLCG2-N (Homo sapiens) = PLCG2-N (Homo sapiens) (UniProt P16885)
PLCG2-N (Homo sapiens), sequence (P16885 527-740): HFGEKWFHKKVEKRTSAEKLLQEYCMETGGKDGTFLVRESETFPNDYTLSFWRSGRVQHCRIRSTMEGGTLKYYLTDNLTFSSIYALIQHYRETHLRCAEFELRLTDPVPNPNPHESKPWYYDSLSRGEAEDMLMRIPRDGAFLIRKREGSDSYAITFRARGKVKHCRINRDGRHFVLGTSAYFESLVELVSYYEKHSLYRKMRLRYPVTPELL

VAV3 (Homo sapiens), sequence (Q9UKW4 667-771): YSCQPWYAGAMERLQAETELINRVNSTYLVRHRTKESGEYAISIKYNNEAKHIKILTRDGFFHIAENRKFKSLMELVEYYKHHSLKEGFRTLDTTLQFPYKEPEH
SUPT6H (Homo sapiens), sequence (Q7KZ85 1320-1436): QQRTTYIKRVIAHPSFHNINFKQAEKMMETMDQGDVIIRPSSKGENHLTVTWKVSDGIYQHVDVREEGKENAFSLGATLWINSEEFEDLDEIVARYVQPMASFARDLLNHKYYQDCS
LYN (Homo sapiens), sequence (P07948 124-231): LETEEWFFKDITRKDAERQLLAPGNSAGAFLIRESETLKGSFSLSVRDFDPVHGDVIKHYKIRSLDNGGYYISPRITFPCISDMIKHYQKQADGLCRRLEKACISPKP
CRK (Homo sapiens), sequence (P46108 8-123): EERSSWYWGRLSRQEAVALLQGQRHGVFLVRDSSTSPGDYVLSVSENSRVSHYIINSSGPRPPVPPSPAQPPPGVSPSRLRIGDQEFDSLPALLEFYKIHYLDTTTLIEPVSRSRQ

For …pYLVPQQGF, the apparent Kd (screen) (CRK (Homo sapiens)) is given as 2000 nM and the apparent Kd (screen) (LYN (Homo sapiens)) is given as 2000 nM.

In the case of …pYLIPQQGFd, the apparent Kd (screen) (NCK1 (Homo sapiens)) is given as 1000 nM.

In the case of …pYWDQDPPE, the apparent Kd (screen) (SUPT6H (Homo sapiens)) is listed as 2000 nM, the apparent Kd (screen) (VAV3 (Homo sapiens)) is listed as 2000 nM and the apparent Kd (screen) (PLCG2-N (Homo sapiens)) is listed as 2000 nM.
